In patent US20150351390A1, “COMPOSITIONS AND METHODS FOR AUXIN-ANALOG CONJUGATION” (PIONEER HI-BRED INTERNATIONAL, INC., priority 2012, published 2015):

B1: OsGH3-1: GH3 protein, accession Q8LQM5 (protein, listed as Oryza sativa)
chain: MPEAPTAKTAPAYGYAPGAHAEALEFIEHVTANAGQVQRRVLGEILAQNAPAEYLRRYGIPGSPDVVDAFRRLVPLVTYEGLQPDILRIANGDTSPIFSGKPISEFLTSSGTSGGERKLMPTIADEMNRRSLLYSLLMPVMSQSVSGLDKGKAMYLLFVKAESRTPGGLAARPVLTSYYRSRQFLDRPRDPYTSYTSPDEAILCVDSYQSMYAQLLCGLVHRADVLRVGAVFASGFLRAIHFLEKHWARLCHDIRTGELDPEITDRVVRDAVGRVLRADPALADAIEDECARASWEGIIRRLWPRTKYIDVIVTGTMSQYIPTLEFYGGGLPLTCTMYASSECYFGLNLNPMCKPSDVAYTLIPTMCYYEFLPVNCNNATAEASHRDLVDLVDVKLGHEYELVVTTYSGLYRYRVGDVLRVAGFKNKAPMFSFVRRQNVALSVDSDKTDETELHAAVSGAVQHLAPFGASLVEYTSYADAATIPGHYVLFWELRAGSTAVPASVFEECCLSVEEALNSVYRQGRACDRSIGPLEIRVVAEGTFDKLMDYAISRGASINQYKAPRCVRPGPVVELLDARVQGKYFSPKCPKWSPGNKQWNKSKDLVGKGDA
B2: SbEES01517: GH3 protein, accession EES01517 (protein)
chain: MAPMATAAAAAAVGRVTALGVAACERDVEKLEFIEDKTKNFDAEQVRVLAEILARNNGAEYLRRHGMEGRTDRQAFKARVPVVTYEDLRPEIDRIANGDRSNIISSHPITEFLTSSGTSAGERKLMPTIEDELNRRQMLYSLLMPVMNLYVPGLDKGKGLYFLFIKSETKTPGGLPARPVLTSYYKSDHFKHRPYDPYNVYTSPTAAILCTDSFQSMYSQMLCGLVARTEVLRVGAVFASGLLRAIRFLQLHWKELAHDLRTGTLSARVVEPSIRDAVAEVLTKPDAGLADLVEAECGKDNWEGIITRVWPNTKYLDVIVTGAMAQYIPTLKYYSGGLPMACTMYASSECYFGLNLRPMCDPSEVSYTIMPNMGYFELLPHDPEDKPAVSSSSAASAMDHDRLLVDLADAEVGKEYELVITTYAGLCRYRVGDILHVTGFHNAAPQFRFVRRKNVLLSIDSDKTDEAELQSAVERASRLLAPYDARIVEYTSQADATTIPGHYVVYWELMVRDGGASPEPDVFERCCLEMEEALNAVYRQGRNGDAIGPLEIRVVRGGTFEEVMDYAISRGASINQYKAPRCVSFGPIIELLNSRVVSRHFSPACPTYSPHKK
modifications: Sorghum bicolor
B3: OsGH3-8: GH3 protein, accession Q0D4Z6 (protein, listed as Oryza sativa)
chain: MAVMTDVSTTGTALRTPAAGAVKEGDVEKLRFIDEMTTNVDAVQERVLGEILGRNAGTEYLTKCGLDGATDRAAFRAKVPVVSYDDLQPYIQRIANGDRSPILSTHPVSEFLTSSGTSAGERKLMPTIMDELDRRQLLYSLLMPVMNLYVPGLDKGKGLYFLFVKSETKTPGGLTARPVLTSYYKSDHFKNRPYDPYHNYTSPTAAILCADAFQSMYAQMVCGLCQRNDVLRLGAVFASGLLRAIRFLQLNWEQLADDIESGELTPRVTDPSVREAVAAILLPDPELAKLIRAECSKGDWAGIITRVWPNTKYLDVIVTGAMAQYIPTLEFYSGGLPMACTMYASSECYFGLNLRPMCDPSEVSYTIMPNMGYFEFLPVDETGAASGDATQLVDLARVEVGREYELVITTYAGLNRYRVGDVLRVTGFHNAAPQFRFVRRKNVLLSIESDKTDEAELQRAVERASALLRPHGASVVEYTSQACTKRIPGHYVIYWELLTKGAGATVVDADTLGRCCLEMEEALNTVYRQSRVADGSIGPLEIRVVRPGTFEELMDYAISRGASINQYKVPRCVTFPPIVELLDSRVVSSHFSPALPHWTPARRSE
B4: OsGH3-4: GH3 protein, accession AAU90225 (protein, listed as Oryza sativa)
chain: MPEAVAAAVSPAAAAATAMCAEHREKLEHIERVTRNAGQEQRRVLEEILAQNAQAEYLRRLGVPGDAPGADEAFRRLAPLVTYEDILPDVLRIANGDTSPILSGKPVSEFLTSSGTSGGERKLMPTIEEEMERRSGLYSLLMPVMSRQVPGLDKGKAMYLYFVKSEWRTPGGLPARPVLTSFYRSRYFLERPHDPYTVYTSPDEAVLCEDAYQSMYAQLICGLVHRADVLRVGAVFASGFLRAIRFLEKHWPSLCRDIRAGELDGGVTDPAVRGAVGRVLRGADPALADAIEAECARPSWQGIIRRVWPSTKYIDVIVTGAMAQYIPTLEFYGGGLPLACTMYASSECYFGLNLNPMCKPSEVAYTLIPTMCYFEFLPVNSGANDVAAPEPDHRGLVDLVDVKLGHEYELVVTTYSGLYRYRVGDVLRVAGFKNAAPMFAFVRRKNVALSIDSDKTDEAELHAAVTEAVQHLAPFGASLVEYTSYADTATTIPGHYVLFWELRSPAGGTPVPASVFEDCCLAVEEGLNSVYRQCRAADRSIGPLEIRVVADGTFDKLMDYALSRGASINQYKAPRCVRPGPVVELLDGRVQATYFSPKCPKWCAGGNKQWISSGAAAKKTTTTCDSLAV
B5: SbEER99639: GH3 protein, accession EER99639 (protein)
chain: MAVMAEVVSTTGAALRSPASQPPPPPAAAAVKDADAEKLQFIEEMTSNVDAVQERVLGEILARNADTEYLAKYGITGASDRATFRAKVPMATYEDLQPYIRRIADGDRSPILSGHPVSEFLTSSGTSAGERKLMPTIEDELNRRQLLYSLQMPVMNLYVPGMDKGKALHFLFVKSETKTPGGLAARPVLTSYYKSNHFKNRPFDAYNNYTSPTAAILCADAFQSMYAQMVCGLCQRQDVLRVGAVFASGLLRAIRFLQLNWEQLADDIESGSLTPRITDPSVREAVAGILRPDPELASLVRSECSKGDWAGIITRIWPNTKYLDVIVTGAMAQYIPTLKYYSGGLPMACTMYASSECYFGLNLRPMCDPSEVSYTLMPNMCYFEFLPMDAAASGGGDASQLVDLARVEVGREYELVITTYAGLNRYRVGDVLQVTGFHNTAPQFRFVRRKNVLLSIESDKTDEAELQRAVERASALLRPHGAAVVEYTSQAYTKSIPGHYVIYWELLTKGPAAGAGAAVDRETLDRCCLEMEEALNTVYRQSRVADGSIGPLEIRVVRPGTFEELMDYAISRGASINQYKVPRCVTFPPIIELLDSRVVSTHFSPALPHWTPGQRSHSD
modifications: Sorghum bicolor
B6: SbEES01578: GH3 protein, accession EES01578 (protein)
chain: MPEAPTTKTTLPAGGFGPGAHREALEFIEHVTANAGKVQRRVLAEILTQNAPAEYLRRYGVPGGSADAVEAFRRVVPLVTYEGLQPDILRIASGDTSPILSGKPISEFLTSSGTSGGERKLMPTIADELDRRSLLYSLQMPVMSQSVPGLDKGKAMYLLFVKAESRTPGGLVARPVLTSYYRSRQFLERPHDPYTEYTSPNEAILCVDSYQSMYTQLLCGLVHRADVLRVGAVFASGFLRAVRFLEKHWPRLCRDIRTGTLDPEITDRAVRDAVVGRVLRGANPALADEIEAECAGPSWEGIIRRLWPRTKYIDVIVTGAMSQYIPTLEFYGGGLPLACTMYASSECYFGLNLKPMCKPGDVAYTLIPTMCYFEFLPLQCSDGKAEPSHRDLVGLVDVKLGHEYELVVTTYSGLYRYRVGDVLRVAGFKNEAPMFKFIRRQNVALSIDSDKTDETELHAAVSGAVQHLAPFGASLVEYTSYADAATIPGHYVLFWELRAGSTAVPASVFEDCCLSVEEALNSVYRQCRACDKSIGPLEIRVVSEGTFDKLMDYAISRGASINQYKAPRCVRPGPVVELLDARVQAKYFSPKCPKWSPGNKQWNAASNGDA
modifications: Sorghum bicolor
B7: OsGH3-2: GH3 protein, accession BAF06259 (protein, listed as Oryza sativa)
chain: MAPAAVAAAEAGSKAAAVAGKAVAACERDAEKLEFIEEMTRGFDAVQERVLAAILARNNGAEYLRRHGMEGRTDREAFKARVPVVTYEDLRPEIERIANGDRSNIISSHPITEFLTSSGTSAGERKLMPTIEDELDRRQMLYSLLMPVMNLYVPGLDKGKGLYFLFIKSETKTPGGLPARPVLTSYYKSDHFKHRPFDPYNVYTSPTAAILCTDAFQSMYAQMLCGLVARAEVLRVGAVFASGLLRAIRFLQLHWRELAHDIRTGTLSAKVTEPSIRDAVAEVLAAPDAELAAFVEAECGKDKWEGIITRMWPNTKYLDVIVTGAMAQYIPTLKFYSGGLPMACTMYASSECYFGLNLRPMCDPSEVSYTIMPNMGYFELMPHDPDAPPLPRDAPPPRLVDLADAEVGREYELVITTYAGLCRYRVGDILQVTGFHNAAPQFRFVRRKNVLLSIDSDKTDEAELQAAVERASALLSPYGASIVEYTSQADATTIPGHYVVYWELMVREGGAWPPPAEEEGRGVFERCCLEMEEALNAVYRQGRNGEAIGPLEIRVVRAGTFEEVMDYAISRGASINQYKAPRCVSFGPIIELLNSRVISKHFSPACPKYSPHKK

test: LC-MS assay of GH3 conjugation of IAA with Asp or Glu; type: biochemical; details: conjugation of IAA with Asp by recombinant GH3 protein; IAA-Asp product by LC-MS
Procedure, shortened: (§1)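 Kinetic parameters come from Michaelis-Menten fits of initial velocities. Velocities reflect LC-MS quantification, against standards, of Asp or Glu conjugates formed by purified GH3 (44 to 164 μg/mL) with 5 mM ATP and MgCl2 at pH 8.0, 30° C.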

Molecule	kcat (hrs−1) IAA-Asp [h⁻¹]
B1	633.605
B2	855.770
B3	578.598
B4	919.336
B5	651.991
B6	4419.692
B7	664.242

same assay, conditions: conjugation of IAA with Glu by recombinant GH3 protein; IAA-Glu product by LC-MS

Molecule	kcat (hrs−1) IAA-Glu [h⁻¹]
B1	33.412
B2	80.034
B3	28.361
B4	17.854
B5	31.110
B6	162.572
B7	42.295

test: LC-MS assay of GH3 conjugation of 2,4-D with Asp or Glu; type: biochemical; details: conjugation of 2,4-D with Asp by recombinant GH3 protein; 2,4-D-Asp product by LC-MS; 5 mM 2,4-D substrate
Procedure, shortened: as §1

Molecule	kcat (hrs−1) 2,4-D-Asp [h⁻¹]
B1	0.937
B2	0.953
B3	2.917
B4	2.002
B5	2.476
B6	0.765
B7	1.548

same assay, conditions: conjugation of 2,4-D with Glu by recombinant GH3 protein; 2,4-D-Glu product by LC-MS; 5 mM 2,4-D substrate

Molecule	kcat (hrs−1) 2,4-D-Glu [h⁻¹]
B1	0.207
B2	0.426
B3	0.368
B4	0.254
B5	0.457
B6	0.250
B7	0.401
